The numbers were not newly measured in paper PMC6387150, which cites them from elsewhere.

For orientation: Kd means the concentration at which binding is half-saturated.

The target in this data set is IL-18 (Homo sapiens) (UniProt Q14116).
Chain of IL-18 (Homo sapiens) (Q14116 37-193): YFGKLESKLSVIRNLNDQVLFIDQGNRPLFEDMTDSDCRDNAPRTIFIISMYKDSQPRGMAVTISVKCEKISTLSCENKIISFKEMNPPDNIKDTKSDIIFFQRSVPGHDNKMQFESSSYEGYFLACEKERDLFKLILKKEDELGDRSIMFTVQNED

Chain of IL-18BP (O95998 31-194): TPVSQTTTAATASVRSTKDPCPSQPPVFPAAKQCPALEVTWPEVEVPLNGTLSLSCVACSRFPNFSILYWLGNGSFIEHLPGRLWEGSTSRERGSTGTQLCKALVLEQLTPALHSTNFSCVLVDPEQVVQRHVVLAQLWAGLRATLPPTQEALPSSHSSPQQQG

For IL-18BP (from UniProt O95998), the dissociation constant Kd is 400 pM.
